Source: US20110289605A1, “Animal Model for Osteoarthritis and Intervertebral Disc Disease” (THE UNIVERSITY OF ROCHESTER, priority 2008, published 2011)
“Also recorded” adds a separate entry of the source.

B1: Wnt3a: canonical Wnt ligand (protein, UniProt P56704 19-352, looked up)
Protein Wnt-3a: SYPIWWSLAVGPQYSSLGSQPILCASIPGLVPKQLRFCRNYVEIMPSVAEGIKIGIQECQHQFRGRRWNCTTVHDSLAIFGPVLDKATRESAFVHAIASAGVAFAVTRSCAEGTAAICGCSSRHQGSPGKGWKWGGCSEDIEFGGMVSREFADARENRPDARSAMNRHNNEAGRQAIASHMHLKCKCHGLSGSCEVKTCWWSQPDFRAIGDFLKDKYDSASEMVVEKHRESRGWVETLRPRYTYFKVPTERDLVYYEASPNFCEPNPETGSFGTRDRTCNVSSHGIDGCDLLCCGRGHNARAERRREKCRCVFHWCCYVSCQECTRVYDVHTCK

Tests used:
[1] = test system: IVD cells of Col2a1-CreER^T2;R26R transgenic mice; assay: TM-induced Cre-recombination in intervertebral disc (IVD) cells, X-Gal staining; format: in vivo, mouse; details: TM to 2-week-old mice, X-Gal staining at 1 month of age; listed as TM
Description: Since chondrocyte-specific β-catenin cAct mice (targeted by Col2a1-Cre transgenic mice) are embryonic lethal, to target intervertebral disc (IVD) cells (Col2a1-positive cell population) in postnatal and adult mice, the Col2a1-CreER^T2;R26R transgenic mice were used. Cre-recombination efficiency in IVD cells was determined in postnatal mice. TM (1 mg/10 g body weight, i.p., ×5 days) was administered into 2-week-old Col2a1-CreER^T2;R26R transgenic mice. Mice were sacrificed at 1 month of age and X-Gal staining was performed.

[2] = test system: Col2a1-CreER^T2;R26R mice; assay: TM-induced Cre-recombination in articular and growth plate chondrocytes, X-Gal staining; format: in vivo, mouse; details: for Cre-recombination efficiency in articular chondrocytes: n=3
Description: Col2a1-CreER^T2 transgenic mice were bred with Rosa26 reporter mice. Methods for mouse genotyping including primer sequences are the same as described previously (Chen et al., Genesis 45:44-50 (2007); Zhu et al., Osteoarthr. Cartilage 16:129-30 (2008)). Tamoxifen (TM, 1 mg/10 g body weight/day, i.p. injection, ×5 days) was administered to the 3- and 6-month-old mice, which were sacrificed 2 months after TM induction at the age of 5 and 8 months. Cre-recombination efficiency was evaluated by X-Gal staining. Nuclear Fast Red staining was performed as a counter stain. β-catenin^fx(Ex3)/fx(Ex3) mice were originally reported by Harada et al (Harada et al., Embo J. 18:5931-42 (1999)). The sequences of PCR primers for genotyping β-catenin^fx(Ex3)/fx(Ex3) mice are: upper primer, 5′-[…]-3′ (SEQ ID NO:10) and lower primer, 5′-[…]-3′ (SEQ ID NO:11). The 412-bp PCR product was detected in wild-type mice, and the 645-bp PCR product was detected in homozygous β-catenin^fx(Ex3)/fx(Ex3) mice. In heterozygous mice (β-catenin^fx(Ex3)/wt), both 412 and 645-bp PCR products were detected. The Col2a1-CreER^T2;β-catenin^fx(Ex3)/w transgenic mice and their Cre-negative littermates were used as controls and were administered TM as the experimental animals for phenotype analysis and cellular function studies.
In the present study, TM-induced Cre-recombination in fully developed growth-plate cartilage was investigated. Thus, creating the possibility of completely separating the role of a specific gene in articular chondrocytes from its potential effect on the growth plate cartilage, which may indirectly affect the function of articular cartilage. Col2a1-CreER^T2 transgenic mice were bred with Rosa26 reporter mice (Soriano, Nat. Genet. 21:70-71 (1999); Mao et al., Proc. Natl. Acad. Sci. USA 96:5037-42 (1999)). TM induction was performed in the 3- and 6-month-old Col2a1-CreER^T2;R26R mice. Mice were then sacrificed 2 months after TM induction at the age of 5 and 8 months and Cre-recombination efficiency was evaluated by X-Gal staining.

[3] = test system: 3.4 kb mouse Mmp-13 promoter; assay: Mmp-13 promoter activity; format: cell-based
Description: (§1) To determine the signaling mechanism through which β-catenin regulates Mmp-13 gene expression, in vitro studies using a RCS chondrogenic cell line were performed. […] A putative Runx2 binding site was identified within the 3.4 kb region of the Mmp-13 promoter.

[4] = test system: RCS chondrogenic cell line; assay: Wnt3a treatment of RCS cells, Mmp-13 mRNA expression; format: cell-based; details: 24 and 48 hours
Description: Total RNA extracted from primary articular chondrocytes, articular cartilage tissue, or primary disc cells was prepared using Trizol (Invitrogen; Carlsbad, Calif.) according to the manufacturer's protocol. One microgram total RNA was used to synthesize cDNA by iScripts cDNA Synthesis Kit (Bio-Rad; Hercules, Calif.).
as §1

[5] = test system: RCS chondrogenic cell line; assay: Wnt3a treatment, Runx2 protein expression (Western blot); format: cell-based; details: 0-48 hours
Description: as §1

| Molecule | Cre-recombination efficiency in IVD cells [1] | Cre-recombination efficiency in growth plate chondrocytes ([2]; TM administered in 3- and 6-month-old mice, 2 months after induction) | Cre-recombination efficiency in articular chondrocytes ([2]; TM administered in 3-month-old mice, X-Gal staining 2 months after induction (5-month-old)) [%] | Cre-recombination efficiency in articular chondrocytes ([2]; TM administered in 6-month-old mice, X-Gal staining 2 months later (8-month-old)) [%] | Mmp-13 promoter activity, Runx2 binding site mutated ([3]; mutation of the Runx2 binding site in the promoter) | Mmp-13 promoter activity ([3]; wild-type 3.4 kb promoter) | Mmp-13 mRNA expression [4] | Runx2 protein expression [5] | Runx2 protein expression ([5]; listed as Wnt3a2) |
| --- | --- | --- | --- | --- | --- | --- | --- | --- | --- |
| CC/C(=C(\c1ccccc1)c1ccc(OCCN(C)C)cc1)c1ccccc1 [Tamoxifen] | high efficiency of Cre-recombination in annulus fibrosus cells and endplate cartilage cells but not in nucleus pulposus cells; also recorded: High Cre-recombination efficiency was observed in annulus fibrosus (AF) cells and endplate cartilage (EC) cells but not nucleus pulposus (NP) cells | less than 20% | 84 | 76 |  |  |  |  |  |
| B1 |  |  |  |  | completely blocked the stimulatory effect; also recorded: completely abolished | stimulated Mmp-13 promoter activity | significantly increased; also recorded: stimulated Mmp-13 expression | stimulated Runx2 protein expression in a time-dependent manner | significantly up regulated |
